{
  "source": "the Immune Epitope Database (IEDB)",
  "experiment_in_all_cases": "IEDB peptide-MHC binding, purified MHC/competitive/radioactivity; filed as Kd, often an IC50 or EC50 that approximates it; ≥ and ≤ were set here for values at or beyond the usual limits of such assays",
  "key": {"HLA-A*02:03": {"molecular_target": "HLA-A*02:03"}, "HLA-A*02:02": {"molecular_target": "HLA-A*02:02"}, "HLA-A*02:06": {"molecular_target": "HLA-A*02:06"}, "HLA-A*31:01": {"molecular_target": "HLA-A*31:01"}, "HLA-A*03:01": {"molecular_target": "HLA-A*03:01"}, "HLA-A*11:01": {"molecular_target": "HLA-A*11:01"}, "HLA-A*33:01": {"molecular_target": "HLA-A*33:01"}, "HLA-A*68:01": {"molecular_target": "HLA-A*68:01"}, "[1]": {"conditions": "source organism: Mammarenavirus juninense"}, "[2]": {"conditions": "source organism: Dengue virus 2 16681-PDK53"}, "[3]": {"conditions": "source organism: Vaccinia virus WR"}, "[4]": {"conditions": "source organism: Mammarenavirus guanaritoense"}, "[5]": {"conditions": "source organism: Dengue virus 2 Jamaica/1409/1983"}, "[6]": {"conditions": "source organism: SARS coronavirus Tor2"}, "[7]": {"conditions": "source organism: Lassa virus Josiah"}, "[8]": {"conditions": "source organism: Mammarenavirus whitewaterense"}},
  "data": [
    {"sequence": "KSGLFQFFV", "values": [
      {"measurement": "Kd", "setting": "HLA-A*02:03; [1]", "value": 1550, "unit": "nM"},
      {"measurement": "Kd", "setting": "HLA-A*02:02; [1]", "value": 23.1, "unit": "nM"},
      {"measurement": "Kd", "setting": "HLA-A*02:06; [1]", "value": 8.06, "unit": "nM"}
    ]},
    {"sequence": "KVSCTILAV", "values": [
      {"measurement": "Kd", "setting": "HLA-A*02:03; [2]", "value": 57.7, "unit": "nM"},
      {"measurement": "Kd", "setting": "HLA-A*02:06; [2]", "value": 18.2, "unit": "nM"}
    ]},
    {"sequence": "KVYNGIFVDT", "values": [
      {"measurement": "Kd", "setting": "HLA-A*02:03; [3]", "value": 1440, "unit": "nM"},
      {"measurement": "Kd", "setting": "HLA-A*02:02; [3]", "value": 111, "unit": "nM"},
      {"measurement": "Kd", "setting": "HLA-A*02:06; [3]", "value": 16400, "unit": "nM"}
    ]},
    {"sequence": "LALTDVEKRI", "values": [
      {"measurement": "Kd", "setting": "HLA-A*02:03; [3]", "value": 403, "unit": "nM"},
      {"measurement": "Kd", "setting": "HLA-A*02:02; [3]", "value": 199, "unit": "nM"},
      {"measurement": "Kd", "setting": "HLA-A*02:06; [3]", "value": 2410, "unit": "nM"}
    ]},
    {"sequence": "LAYYNSCML", "values": [
      {"measurement": "Kd", "setting": "HLA-A*02:03; [3]", "value": 15500, "unit": "nM"},
      {"measurement": "Kd", "setting": "HLA-A*02:02; [3]", "value": 12800, "unit": "nM"},
      {"measurement": "Kd", "setting": "HLA-A*02:06; [3]", "value": "≥ 21500", "unit": "nM"}
    ]},
    {"sequence": "LCFWSAIFFT", "values": [
      {"measurement": "Kd", "setting": "HLA-A*02:03; [4]", "value": "≥ 30300", "unit": "nM"},
      {"measurement": "Kd", "setting": "HLA-A*02:02; [4]", "value": 2600, "unit": "nM"},
      {"measurement": "Kd", "setting": "HLA-A*02:06; [4]", "value": "≥ 34500", "unit": "nM"}
    ]},
    {"sequence": "LLATVTGGI", "values": [
      {"measurement": "Kd", "setting": "HLA-A*02:03; [5]", "value": 3.59, "unit": "nM"}
    ]},
    {"sequence": "LLFLVLIML", "values": [
      {"measurement": "Kd", "setting": "HLA-A*02:03; [6]", "value": 1370, "unit": "nM"},
      {"measurement": "Kd", "setting": "HLA-A*02:02; [6]", "value": 154, "unit": "nM"},
      {"measurement": "Kd", "setting": "HLA-A*02:06; [6]", "value": 573, "unit": "nM"}
    ]},
    {"sequence": "LMMATIGIA", "values": [
      {"measurement": "Kd", "setting": "HLA-A*02:03; [5]", "value": 0.49, "unit": "nM"}
    ]},
    {"sequence": "MLTNAISSRV", "values": [
      {"measurement": "Kd", "setting": "HLA-A*02:03; [3]", "value": 0.105, "unit": "nM"},
      {"measurement": "Kd", "setting": "HLA-A*02:02; [3]", "value": 53, "unit": "nM"},
      {"measurement": "Kd", "setting": "HLA-A*02:06; [3]", "value": 224, "unit": "nM"}
    ]},
    {"sequence": "MLWCKDGHV", "values": [
      {"measurement": "Kd", "setting": "HLA-A*02:03; [6]", "value": 11, "unit": "nM"},
      {"measurement": "Kd", "setting": "HLA-A*02:02; [6]", "value": 10.3, "unit": "nM"},
      {"measurement": "Kd", "setting": "HLA-A*02:06; [6]", "value": 362, "unit": "nM"}
    ]},
    {"sequence": "MMQNDYGGM", "values": [
      {"measurement": "Kd", "setting": "HLA-A*02:03; [3]", "value": 2740, "unit": "nM"},
      {"measurement": "Kd", "setting": "HLA-A*02:02; [3]", "value": 1080, "unit": "nM"},
      {"measurement": "Kd", "setting": "HLA-A*02:06; [3]", "value": 1660, "unit": "nM"}
    ]},
    {"sequence": "MSIQLINKAV", "values": [
      {"measurement": "Kd", "setting": "HLA-A*02:03; [7]", "value": 1790, "unit": "nM"},
      {"measurement": "Kd", "setting": "HLA-A*02:02; [7]", "value": 11300, "unit": "nM"},
      {"measurement": "Kd", "setting": "HLA-A*02:06; [7]", "value": 619, "unit": "nM"}
    ]},
    {"sequence": "NQLTYVVIAI", "values": [
      {"measurement": "Kd", "setting": "HLA-A*02:06; [5]", "value": 23.6, "unit": "nM"}
    ]},
    {"sequence": "PLPNFSSLNL", "values": [
      {"measurement": "Kd", "setting": "HLA-A*02:06; source organism: Homo sapiens", "value": "≥ 56600", "unit": "nM"}
    ]},
    {"sequence": "PLPVSRLVSL", "values": [
      {"measurement": "Kd", "setting": "HLA-A*02:03; source organism: Homo sapiens", "value": 16700, "unit": "nM"}
    ]},
    {"sequence": "QISRVNDLNR", "values": [
      {"measurement": "Kd", "setting": "HLA-A*31:01; [3]", "value": 122, "unit": "nM"},
      {"measurement": "Kd", "setting": "HLA-A*03:01; [3]", "value": 1940, "unit": "nM"},
      {"measurement": "Kd", "setting": "HLA-A*11:01; [3]", "value": 335, "unit": "nM"},
      {"measurement": "Kd", "setting": "HLA-A*33:01; [3]", "value": 913, "unit": "nM"},
      {"measurement": "Kd", "setting": "HLA-A*68:01; [3]", "value": 88, "unit": "nM"}
    ]},
    {"sequence": "RFVKFNDYR", "values": [
      {"measurement": "Kd", "setting": "HLA-A*31:01; [3]", "value": "≤ 1", "unit": "nM"},
      {"measurement": "Kd", "setting": "HLA-A*03:01; [3]", "value": 19800, "unit": "nM"},
      {"measurement": "Kd", "setting": "HLA-A*11:01; [3]", "value": 14800, "unit": "nM"},
      {"measurement": "Kd", "setting": "HLA-A*33:01; [3]", "value": 237, "unit": "nM"},
      {"measurement": "Kd", "setting": "HLA-A*68:01; [3]", "value": 38.2, "unit": "nM"}
    ]},
    {"sequence": "RLGLVLDDY", "values": [
      {"measurement": "Kd", "setting": "HLA-A*31:01; [3]", "value": "≥ 77900", "unit": "nM"},
      {"measurement": "Kd", "setting": "HLA-A*03:01; [3]", "value": 11.1, "unit": "nM"},
      {"measurement": "Kd", "setting": "HLA-A*11:01; [3]", "value": 3560, "unit": "nM"},
      {"measurement": "Kd", "setting": "HLA-A*33:01; [3]", "value": "≥ 77700", "unit": "nM"},
      {"measurement": "Kd", "setting": "HLA-A*68:01; [3]", "value": "≥ 44500", "unit": "nM"}
    ]},
    {"sequence": "RVVVQIDPEY", "values": [
      {"measurement": "Kd", "setting": "HLA-A*31:01; [3]", "value": "≥ 70000", "unit": "nM"},
      {"measurement": "Kd", "setting": "HLA-A*03:01; [3]", "value": 14200, "unit": "nM"},
      {"measurement": "Kd", "setting": "HLA-A*11:01; [3]", "value": "≥ 23400", "unit": "nM"},
      {"measurement": "Kd", "setting": "HLA-A*33:01; [3]", "value": "≥ 70000", "unit": "nM"},
      {"measurement": "Kd", "setting": "HLA-A*68:01; [3]", "value": 1190, "unit": "nM"}
    ]},
    {"sequence": "SAEDNYLAK", "values": [
      {"measurement": "Kd", "setting": "HLA-A*31:01; [3]", "value": "≥ 53500", "unit": "nM"},
      {"measurement": "Kd", "setting": "HLA-A*03:01; [3]", "value": "≥ 26300", "unit": "nM"},
      {"measurement": "Kd", "setting": "HLA-A*11:01; [3]", "value": 56.1, "unit": "nM"},
      {"measurement": "Kd", "setting": "HLA-A*33:01; [3]", "value": "≥ 77700", "unit": "nM"},
      {"measurement": "Kd", "setting": "HLA-A*68:01; [3]", "value": 11400, "unit": "nM"}
    ]},
    {"sequence": "SAGFSLWIYK", "values": [
      {"measurement": "Kd", "setting": "HLA-A*31:01; [6]", "value": 52.1, "unit": "nM"},
      {"measurement": "Kd", "setting": "HLA-A*03:01; [6]", "value": 75.3, "unit": "nM"},
      {"measurement": "Kd", "setting": "HLA-A*11:01; [6]", "value": 0.0935, "unit": "nM"},
      {"measurement": "Kd", "setting": "HLA-A*33:01; [6]", "value": 3430, "unit": "nM"},
      {"measurement": "Kd", "setting": "HLA-A*68:01; [6]", "value": 31.1, "unit": "nM"}
    ]},
    {"sequence": "SCSYKIGHH", "values": [
      {"measurement": "Kd", "setting": "HLA-A*31:01; [8]", "value": "≥ 45800", "unit": "nM"},
      {"measurement": "Kd", "setting": "HLA-A*03:01; [8]", "value": "≥ 78000", "unit": "nM"},
      {"measurement": "Kd", "setting": "HLA-A*11:01; [8]", "value": "≥ 64800", "unit": "nM"},
      {"measurement": "Kd", "setting": "HLA-A*33:01; [8]", "value": "≥ 77700", "unit": "nM"},
      {"measurement": "Kd", "setting": "HLA-A*68:01; [8]", "value": "≥ 77600", "unit": "nM"}
    ]},
    {"sequence": "SFKSINKVY", "values": [
      {"measurement": "Kd", "setting": "HLA-A*31:01; [3]", "value": 2130, "unit": "nM"},
      {"measurement": "Kd", "setting": "HLA-A*03:01; [3]", "value": 1830, "unit": "nM"},
      {"measurement": "Kd", "setting": "HLA-A*11:01; [3]", "value": 2770, "unit": "nM"},
      {"measurement": "Kd", "setting": "HLA-A*33:01; [3]", "value": "≥ 77700", "unit": "nM"},
      {"measurement": "Kd", "setting": "HLA-A*68:01; [3]", "value": 6900, "unit": "nM"}
    ]}
  ]
}
